The text below walks through data of US20250241939A1, “NUCLEIC ACID-BASED DELIVERY SYSTEMS AND USES THEREOF” (Kodikaz Therapeutic Solutions, Inc., priority 2022, published 2025).

The subject of series [1] is MM1s (multiple myeloma) cell genome. Kind of series: ctDNA coculture with MM1s cells, whole genome sequencing: genomic insertion sites, transposons at insertion points and SNVs (multiple myeloma). In kind it is cell-based, human. Conditions: for Gene: gene at identified genomic insertion site; for Gene / Location / Chr position / No. SNP: multiple myeloma; for Location / Chr position: identified genomic insertion site; for Location: chromosome; for No. SNP: number of single nucleotide variants (SNVs or SNPs) identified. As to the method:
(§1) The integration of ctDNAs into the host cell genome was evaluated. ctDNA was extracted from patient plasma, cultured for 24 hours with cells of a matching cancer cell type or non-matching cancer cell type, and whole genome sequencing was performed. The cell lines used were MM1s (multiple myeloma, MM) and MIA (pancreatic cancer, PC).
Single nucleotide variants (SNVs) unique to the ctDNA that were found in the host cell genome under matching coculture conditions were identified.
The sequence data was used to reconstruct genomic contigs for each experimental condition by de novo assembly. […] Coculture contigs carrying a ctDNA insertion were identified using NucDiff analysis. BLAST alignment analysis further validated the gain of ctDNA fragments in coculture conditions and identified the transition points of ctDNA insertion (FIGS. 3A-3C). […] The remaining 20% inserted into a chromosomal location distinct from their site of origin.
(§2) Experiments were designed to identify the presence of transposons in ctDNA fragments. To map ctDNA genomic junctions more precisely, a PACBIO probe was ligated to multiple myeloma and pancreatic cancer ctDNA samples to label their 5′ and 3′ ends. Whole-genome sequencing of DNA from cells with ctDNA genomic integration was done using the Illumina platform. De novo assembly was performed on the sequencing output. ctDNA contigs containing PACBIO adaptor were then matched to those contigs containing inserted ctDNA sequences identified in the coculture experiments. Transposable element on ctDNA sequences at the insertion points (<100 nucleotides from transition point between cell and ctDNA) were detected and classified using RepeatMaster.
(§3) A search was conducted for transposons that preferentially target cells of matching tumor types. The lists of transposons identified at the ctDNA insertion point in matching and mismatched coculture conditions were compared (e.g., MM ctDNA with MM cells or PC cells). Transposons were selected that were uniquely or preferentially inserted in the matching conditions.
In multiple myeloma, AluSp, MER11, MER11C, AluJb, and L2a, among other subfamilies of retrotransposons were identified at the MM ctDNA insertion sites (FIG. 5B and TABLE 7).
(§4) Whole-genome sequencing and Whole exon sequencing: ctDNA was extracted from 10 MM and 10 PC patients. DNA from CD138 (+) cells and from cell lines used in in vitro experiments (MM1s and MIA) was extracted using Blood & Cell Culture DNA Mini Kit (Quiagen, MD). DNA from […] paraffin embedded pancreatic tumors was obtained using QIAamp DNA FFPE Tissue Kit Print (Qiagen, MD).
After extraction, ctDNA was ligated to the PACBIO adaptor ([…]) using the ABM DNA Library Prep Kit for Illumina Sequencing (Applied Biological Materials Inc. Canada). PACBio-labeled ctDNA and regular ctDNA were subjected to standard methods for library preparation and sequencing using Illumina and Agilent protocols, respectively. Applied Biological Materials Inc. prepared the libraries and performed whole-exon and -genome sequencing. The average target coverage was 50×.
(§5) Identification of transposable elements and its nucleotide variants: To determine the locations of transposable-like regions in contigs, sequences were analyzed and transposable elements (TEs) were identified and classified using RepeatMasker version 4.1.0 and the Dfam database (release 3.1) of repetitive DNA families was used as a reference for identifying repeats in ctDNA contig sequences that were part of qualifying structural events. For each repeat sequence identified by RepeatMasker, the overall frequency of the specific repeat (e.g., for AluSp or L1) and their parent class (e.g., SINE) was computed.
Once the TE elements were identified, hit repeats/TE sequences, unique contigs for all samples, and insertion sequence were aligned with MAFFT software version. […]

Series [2] relates to MIA (pancreatic cancer) cell genome. Kind of series: ctDNA coculture with MIA cells, whole genome sequencing: genomic insertion sites, transposons at insertion points and SNVs (pancreatic cancer). Format: cell-based, human. The conditions noted are these: TABLE 8, pancreatic cancer co-culture; for blast orientation: BLAST alignment orientation; for blast chr: chromosome with the longest result for BLAST analysis of the full contig; for Transposon orientation: compared with the human reference genome; for Location relative to insertion: location of the transposon relative to the insertion on the contig. The protocol: as §1
The sequence data was used to reconstruct genomic contigs for each experimental condition by de novo assembly. […] Coculture contigs carrying a ctDNA insertion were identified using NucDiff analysis.
as §2, §3, §4
After extraction, ctDNA was ligated to the PACBIO adaptor ([…]) using the ABM DNA Library Prep Kit for Illumina Sequencing (Applied Biological Materials Inc. Canada). PACBio-labeled ctDNA and regular ctDNA were subjected to standard methods for library preparation and sequencing using Illumina and Agilent protocols, respectively. Applied Biological Materials Inc. prepared the libraries and performed whole-exon and -genome sequencing.
as §5
Once the TE elements were identified, hit repeats/TE sequences, unique contigs for all samples, and insertion sequence were aligned with MAFFT software version. Mutations in TE sequences were identified by comparison of nucleotides at each position in the multiple sequence alignment with the “Biostrings” R package (version 4.1). A position was considered to contain mutation if the substitution was present in contigs of all samples.

As to L1MB3, the blast orientation result in series [1] (TABLE 7, multiple myeloma co-culture, BLAST alignment orientation) is “Plus/Plus”. Further, in series [1] (TABLE 7, multiple myeloma co-culture, chromosome with the longest result for BLAST analysis of the full contig), the blast chr result was “chr2”. Besides, the Distance from insertion in series [1] (TABLE 7, multiple myeloma co-culture, distance between insertion and the transposon (0 if they overlap)) is −68. Besides, the “Location relative to insertion” value in series [1] (TABLE 7, multiple myeloma co-culture, location of the transposon relative to the insertion on the contig) is “right”.

B1: MLT1J2 (nucleic acid, listed as Homo sapiens)
DNA: TGTGTTAGTCAGGATAGGCTAACCTCTGTAACACACAACCCCAATTTTTCAGTGGCTCAGAACAATAGGAGTTTCTTTCTTACTCATGTAAAGTCCAGGTGTGGCAGAAACTTGCGGGGGAGAAAGTCTACTCCACAGCATCACTCAGGGACCCAGGCTCCTGCCTTACGGTGGTTCCGCCATTTTCCAGGGCCTCGGAGTCCTCCATCCCATCTCCTCCATTCAGCTGGTGGATGTGGGAGGAGAGCGTGTATGAAAGACCACACAGAAGCTTTTTTTGGGCCAGGCTTTGAGACGGCGCACATCAGTTTCGCTCTTGTTGCCCAGGCTGGAGTGCAATGGCGCAATCTCGGCTCACCGCAAAAGACACTGGGAAATTTGGTCTGGCCATGTGTCTAGGAAGCAGAGGAGATGGGGTTTCATAAACTCCTGAACTCTCTCTACCACG
On to B1, for which, in series [2], the blast orientation result is listed as “Plus/Plus”, the blast chr entry was “chr21”, the Transposon orientation result is “direct” and the “Location relative to insertion” value is recorded as “intersect”. The Distance from insertion in series [2] (distance between insertion and the transposon (0 if they overlap)) came to 0.

B2: MIRc (nucleic acid, listed as Homo sapiens)
DNA: AATTACAACAACCCTTAATATTTGTAAAGCGCTTGATAATTCAGGGAGGGCTTTTAAAAACTTCTATCCATCTCTTCCCCCCAGCAATCCTATGAGGTAGGCAGGGCTGGAATCATTTGCTGCATTTTATCGAATAGGAAGCCATGACTCGTAGAGGTCTGGTGACTTAACTGAGGTCACCCACTGAGGACGTGGCAGAGCTGGGTCCTGAATCTGTGGCCCTCAGGCTCTTTGCCTGGCCCTGCCTCACATAGACTACGCTGCCTCT
For the molecule B2, in series [2], the blast orientation result is “Plus/Plus”; the blast chr entry is “chr16 and chr8”; the Transposon orientation entry is “direct”; the “Location relative to insertion” value is given as “left”.

B3: 21 (nucleic acid, listed as Homo sapiens)
chain: CAGCGCAAGTAATATATCCTGGAATTGGAAGCAGAATGGGAACTATGGACTCAGTGAAGATTGTTCTGGACATTATTTGATTCTTCTTTCTCGCTGCCAATTGGATACTTTTTTTTTTTTTTTGAGACAGAGTCT
In the case of B3, in series [1], the Gene entry is given as “TBL1XR1”, the Location entry is “Chr3”, the Chr position was 176878250 and the “No. SNP” value was 1.

B4: 20 (nucleic acid, listed as Homo sapiens)
chain: TTCTTCTCACGGAGTGAAACTTTTCCTTTGATTGAGCAGTTTCGAAACTCTCTTTTTGTAAAATCTGCAAGTGAACATTTGGAGTGCTTTGTGGCCTATGATAGAAAAGGAAATATTTTCACTTAAAATCTAGACAGAAGCAATCTGAGAAACTTCTTTGTGATGTTTGTATTCATCTTACATAGTTAAACCTTTCTTTTGATTGAGCAGTTTTGAAACTCTCTTTTTGTCGAATCTGTAAGAGGACATTTGGAGTGCTTTCAGGCCTATGGTGAAAAAGGAAGTATCTTCTCATGAAAACTAGACAGAAGAATTCAGACAAACTTCTTTGTGATGTGTGCATTTATCTCACAGACTTGAACCTTTCTTTTGATTGAGCAGTTTGAAACACTCTTTTTGTAGAATCTGCAAGTGGACATTTGGAGCACGTGGAGGCCTATAGTGGAAATGGAAATGTCTTCACACTAAAAACTAGACAGAAGAATTCTGAGAAACTTCTTTGTGATCTTTGCATTCATCTCACAGAGTTGAACCTTTCTTTTCATTGAGCAGTTTGAAAACACTCTTTTTGTAGAATCGGCAAGTGGACATTTGGAACGCATTGCAGACTATGATGGAAAAGGAAATATCTCCA
Regarding B4, in series [1], the Gene result is “AK311573”, the Location result is on record as “Chr21”, the Chr position is given as 10752909 and the “No. SNP” value came out at 24.

B5: 13 (nucleic acid, listed as Homo sapiens)
chain: TATCGAAAATTCACCCCCGATATTCACGTAGGTTCTTTTCTATTTTCCCTAAGCGTCGGCAGGTTTGAGAAATAAAGGGACAGAGTACAAAAGAGAGAAATTTTAAAGCTGGGCGTCCGGGGGAGACATCACATGTTGGTAGGTTCCATGATGCCCCACAAGCCGTAAAAACCAGCAAGTTTTTATTAGTGATTTTCAAAAGGGGAGGGAGTGTACGAATAGGTGTGGGTCACAGAGATCACGTGCTTCACAAGGTAATAGAATATCACAAGGCAAATGGAGGCAGGGCGAGATCACAGGACCACAGGACCGGGGTGAAATTAAAATTGCTAATGAAGTTTTGGGCACCATTGTCATTGATAACATCTTATCAGGAGACAGGGTTTGAGAGACAACCGGTCTGACCAAAATTTATTAGGTGGGAATTTCCTCGTCCTAATAAGCCTGGGAGTGCTATGGGAGACTGGGGCTTATTTCATCCCGTAGAGGCAACCATAAAAGACAGGCCCAAGCGGCCATTTAGAGCCTCCCAGGACATTCTCTTTCTCAGGGTGTTCCTTGCTGAGAAAAAGAATTCAGATATTTCTCCATTTGCTTTTGAAAGAAGAGAAATATGGCTCTGTTCCCGGCTCACGGCGCAGATTTAAGGTTATCTCCTTTTCCCTGAACAATTGCTGTTATCCTGTTCTTTTTTCAAGGTGCCCAGATTTCATATTGTTCAAACACACATGCTTACAATTTGTGCAGTTAAGCAATATCACAGGGTCCTGAGGGACATACATCCTCCTCAGCTGACAGGATTAAGAGATTAAAGTAAAGACAGGCATAGGAAATCACAAGGGTATTGATTGGGGAAGTGATAAGTGTCCATGAAATCTTCACAATTTATGTTTAGAGATTGCAGTAAAGACAGGCATAAGAAATTATAAAAGTATTAATTTGGGGAACTAATAAATGTCCATGAAATCTTCACAATCCACGTTCTTCTGCCATGGCTTCAGCCGGTCCCTCCGTTCGGGGTCCCTGACTTCCCGCAACA
For the molecule B5, in series [1], the Gene result is on record as “none”; the Location entry is “Chr14/ and Chr3”; the “No. SNP” value was determined as 4.

B6: 4 (nucleic acid, listed as Homo sapiens)
chain: TGATATGGTTTGGCTGTGTCCCCACCTAAATCTCATCTTGAATTGTAGTTCCCATAATCCCCATGTGTCATGGGAGGGACCCAGTGGGAGGTAATTTAATCCTGGGGGCAGTTACCCTCCTGCTATGTGTGTGTGTGTGTGTGTGTTCTCACGAGATCTGATGGTTTTATAAGGGGCTTTTCCCCCTTCGCTCGGCACTTCTCCTTCCTGCCGCCATGTGAAGAAGGACGTGTTTGCTTCCCCTTCCGCCATGATTGTAAGTTTCCTGAGGCCTCCCCAGCCATGCNGAACTGTGAGTCAATTAAACCTCTTTCCTTTATAAATTACCCAGTCTCGGGTGTGTCTTTATTAGCAGCGTGAGAACGGACTAATACA
modifications: misc_difference 287 a, c, t, g, unknown or other
Consider B6, for which, in series [1], the Gene result was “PI4K2B”, the Location result is “Chr4” and the “No. SNP” value stood at 2.
